Laboratory results: the supplement of paper PMC9170038

Test system: MS2 coat protein
Test: apparent KD of MS2 coat protein; designed switch direction (-1 OFF switch, 1 ON switch): -1; higher = weaker reporter binding
Outline: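 Designed RNA switches with common flanks were transcribed on Illumina chips by stalled E. coli RNA polymerase and titrated with SNAP-549-labelled MS2 coat protein, from 0.7 or 1.5 nM doubling to 3 µM, in Tris-HCl pH 7.5 buffer with KCl, MgCl2, BSA, DTT, tRNA and Tween-20. Steps lasted 0.8–1.5 h (lowest) to 10–20 min (highest). Titrations ran without input, with 200 uM small-molecule ligand, or with an oligonucleotide input. Normalised cluster fluorescence was curve-fitted, and apparent KD is the per-design median over clusters.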

[1] = input ligand: microRNA oligo, concentration not stated
[2] = Eterna round: R95, input ligand: FMN 200 uM
[3] = Eterna round: R95, input ligand: microRNA oligo, concentration not stated
[4] = Eterna round: R95, input ligand: none

| Sequence | apparent KD of MS2 coat protein (input ligand: FMN 200 uM) [nM] | apparent KD of MS2 coat protein [1] [nM] | apparent KD of MS2 coat protein (input ligand: none) [nM] | apparent KD of MS2 coat protein [2] [nM] | apparent KD of MS2 coat protein [3] [nM] | apparent KD of MS2 coat protein [4] [nM] |
| --- | --- | --- | --- | --- | --- | --- |
| ACAUGAGGAUCACCCAUGUAAACAUAAUGGCUCAUGUAGAGUCAGGAUAUGCGUGGCGAACACGCGCAGAAGGGACAAGACUGG [Deportation 24 - Jieux - Exclusion NG 3] (Eterna round: R96, puzzle: Exclusion NG 3) | 32.4 | 21 | 31 |  |  |  |
| GAAAAGUGAGGAUAUGGUAAAAGAAAAAGAAGAAGAAAACUCCAGAAGGCACAUGAGGAUCACCCAUGUGAAAG [salish99_ex4_r3_007] (puzzle: Exclusion 4) |  |  |  | 22.2 | 17.4 | 15.7 |
| AGAAGUAGUAACCGAUCCUACAUGAGGAUCACCCAUGUAGCUAGACGUGCACGCGAGGCUCGUCAGACUACCAGAUG [salish99_TOv1_r3_028] (puzzle: Sensor v3, turn-off variant 1) |  |  |  | 210 | 133 | 289 |
| AUAUAUAGUGUGAGGAUAUGCUGGUCCUUGGAUCAGCAGAAGGCACAUGAGGAUCACCCAUGUAGUUUAUUUUA [Mat - Exclusion 4 - JL Mod - D1] (puzzle: Brourd's mod of Exclusion 4) |  |  |  |  | 29.3 |  |
| AAGACGCGUGUAAGGAUAUCGAAAGCCCGAGGCGACGAGAAGGUACAUGAGGAUCACCCAUGUGCAGAUCACAA [BmEX4 B.3] (Eterna round: R97, puzzle: Brourd's mod of Exclusion 4) | 18.9 |  | 17.3 |  |  |  |
| AACCCGAUAGGAUAUACUUGAGGAUCACCCAAGUACGCCUGCAAUGCAAGCGCCUGAAGUAGAAGGAUCAAAAG [Gexetele] (Eterna round: R97, puzzle: Exclusion 3) | 21 |  | 31.1 |  |  |  |
| CCGGUUGGCGCAGGAUAUACAUGAGGAUCACCCAUGUUCAUGAGGAUCACCUAUGAGUUUUUGUUGUAGAAGGGUGGCCCGGCC (Eterna round: R96, puzzle: Exclusion NG 2) | 53.1 | 39.1 | 52.9 |  |  |  |
| CGCUGGACAGGAUAUGUUCUUGGGCACUUGAGGAUCACCCAAGUCAUCGAGACAACAGGCACAGAAGGGUUUAUGG [salish99_ex5_r4_024] (Eterna round: R97, puzzle: Exclusion 5) | 30.7 |  | 38.4 |  |  |  |
| AAAUUGUGAGGAUAUCCAAUAUAUGACAUGAGGAUCACCCAUGUUUCCACUCGUACCUCCGGAGAAGGCACUGCAA [Ex5 #39] (Eterna round: R97, puzzle: Exclusion 5) | 22.3 |  | 27.2 |  |  |  |
| UACAUGAGGAUCACCCAUGUUUUGUCGUGUAUGGUAUUUAUCUAGGAUAUCAAUUUGGUUAUUUAUGAGAAGGAGAAUAUUAAU [JMF's solution 66] (Eterna round: R96, puzzle: Exclusion NG 3) | 48.9 | 31.6 | 37.2 |  |  |  |
| AUCCAGGCAGGAUAUUGCCGGUUGCACAUGAGGAUCACCCAUGUACUCCUAGGUCGAUGGCAAGAAGGGCUAUCCA [Eternabot (Original) Solution 24] (Eterna round: R97, puzzle: Exclusion 5) | 26.6 |  | 36 |  |  |  |
| AAUAGCAAGCAGAUCCUAAACAUGAGGAUCACCCAUGUGCUCGUCUUGUAAAGUACUAUCACGAAAGUGAUAGUACA [Sensor 3, v1 - 61] (puzzle: Sensor v3, turn-off variant 1) |  |  |  | 118 | 326 | 88.3 |
| UAAUAUCUGAUUCUUGAGAUACAUGAGGAUCACCCAUGUUCACAGGAUAUUGAUUUUAAGAAAAGCAAGAAGGGUGAAUCAUUU [JR_ExcNG3_Sub041] (Eterna round: R96, puzzle: Exclusion NG 3) | 26.9 | 16.5 | 22.9 |  |  |  |
| GGAUAUAACGUAGGAUAUCAGAGAAACAGACGAUGAGAAGGACGACAUGAGGAUCACCCAUGUGAUCUAUCAAUAUUAUACAUG [Prohibition 98 - Jieux - Exclusion NG 1] (Eterna round: R96, puzzle: Exclusion NG 1) | 874 | 434 | 712 |  |  |  |
| GUCAGCUCGUCAGGAUAUACAUGAGGAUCACCCAUGUGGUCAAUAGCAGCUUCGGCUGCAAUAAUGUAGAAGGGACGAGCUGAC [ENG2/8-E] (Eterna round: R96, puzzle: Exclusion NG 2) | 115 | 301 | 756 |  |  |  |
| UUUUAGCAAGCGAGAUCCCACAUGAGGAUCACCCAUGUGCAUCCAGAAUUACUUUUUGCAUAAGCUCGUCUUAUAUA [JR_STOV1_v2_Sub080] (Eterna round: R97, puzzle: Sensor, turn-off variant 1) | 58.8 |  | 64.5 |  |  |  |
